Reference: the supplement of paper PMC10065799, “High-throughput profiling of sequence recognition by tyrosine kinases and SH2 domains using bacterial peptide display” (eLife, 2023)

Assays:
c-Src SH2 = assay: SH2 binding enrichment of the phosphorylated peptide, bacterial display (enrichment ratio); higher = better substrate or ligand; peptides without Tyr show the background
Grb2 SH2 = Grb2 SH2 (UniProt P62993); assay: as above
SHP2-C SH2 = assay: as above
EPHB2 = EPHB2 (UniProt P29323); assay: phosphorylation enrichment, bacterial display (enrichment ratio); higher = better substrate or ligand; peptides without Tyr show the background
EPHB1 = EPHB1 (UniProt P54762); assay: as above
Chain of EPHB1 (P54762 whole entry, looked up): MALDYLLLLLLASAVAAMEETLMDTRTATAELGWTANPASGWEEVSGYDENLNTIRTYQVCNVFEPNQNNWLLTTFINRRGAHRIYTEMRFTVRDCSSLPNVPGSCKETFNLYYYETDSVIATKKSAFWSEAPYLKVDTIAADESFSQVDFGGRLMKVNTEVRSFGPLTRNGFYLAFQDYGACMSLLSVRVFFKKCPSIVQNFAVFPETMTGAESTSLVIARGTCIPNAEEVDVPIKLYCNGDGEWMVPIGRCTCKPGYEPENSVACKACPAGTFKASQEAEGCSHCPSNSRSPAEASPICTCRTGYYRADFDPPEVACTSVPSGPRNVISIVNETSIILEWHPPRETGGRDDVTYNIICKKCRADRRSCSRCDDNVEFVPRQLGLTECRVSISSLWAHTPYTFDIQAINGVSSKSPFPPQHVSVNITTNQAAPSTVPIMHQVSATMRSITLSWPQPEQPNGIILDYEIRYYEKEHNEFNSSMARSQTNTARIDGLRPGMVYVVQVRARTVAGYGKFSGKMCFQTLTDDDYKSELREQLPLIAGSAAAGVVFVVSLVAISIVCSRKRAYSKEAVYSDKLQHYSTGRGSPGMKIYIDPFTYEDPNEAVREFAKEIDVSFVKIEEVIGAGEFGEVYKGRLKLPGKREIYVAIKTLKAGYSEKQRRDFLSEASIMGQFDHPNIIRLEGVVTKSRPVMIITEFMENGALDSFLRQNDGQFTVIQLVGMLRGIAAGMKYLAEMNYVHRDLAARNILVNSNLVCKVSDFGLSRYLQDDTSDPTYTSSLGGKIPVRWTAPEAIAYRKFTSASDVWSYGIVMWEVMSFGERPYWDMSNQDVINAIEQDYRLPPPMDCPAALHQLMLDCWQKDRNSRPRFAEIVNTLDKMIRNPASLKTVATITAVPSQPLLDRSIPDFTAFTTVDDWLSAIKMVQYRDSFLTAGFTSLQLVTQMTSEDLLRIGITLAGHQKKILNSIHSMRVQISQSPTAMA

FGFR3 = FGFR3 (UniProt P22607); assay: as above
Hck = Hck (UniProt P08631); assay: as above
Chain of Hck (P08631 whole entry, looked up): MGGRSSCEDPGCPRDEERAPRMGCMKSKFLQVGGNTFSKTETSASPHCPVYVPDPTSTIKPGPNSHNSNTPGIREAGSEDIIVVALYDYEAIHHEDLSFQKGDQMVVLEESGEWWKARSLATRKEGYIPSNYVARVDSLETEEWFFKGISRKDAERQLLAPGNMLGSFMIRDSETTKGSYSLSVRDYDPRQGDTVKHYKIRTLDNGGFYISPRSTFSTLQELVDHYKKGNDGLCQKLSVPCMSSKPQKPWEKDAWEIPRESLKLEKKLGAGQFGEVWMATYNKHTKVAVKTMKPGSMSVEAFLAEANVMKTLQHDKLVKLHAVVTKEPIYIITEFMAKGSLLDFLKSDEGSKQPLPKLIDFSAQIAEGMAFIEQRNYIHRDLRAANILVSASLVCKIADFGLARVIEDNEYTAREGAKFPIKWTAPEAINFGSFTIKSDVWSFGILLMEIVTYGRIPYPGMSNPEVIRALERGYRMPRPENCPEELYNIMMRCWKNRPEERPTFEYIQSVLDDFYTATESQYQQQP

Fer (mouse) = assay: as above
Jak2 = Jak2 (UniProt O60674); assay: as above
Chain of Jak2 (O60674 whole entry, looked up): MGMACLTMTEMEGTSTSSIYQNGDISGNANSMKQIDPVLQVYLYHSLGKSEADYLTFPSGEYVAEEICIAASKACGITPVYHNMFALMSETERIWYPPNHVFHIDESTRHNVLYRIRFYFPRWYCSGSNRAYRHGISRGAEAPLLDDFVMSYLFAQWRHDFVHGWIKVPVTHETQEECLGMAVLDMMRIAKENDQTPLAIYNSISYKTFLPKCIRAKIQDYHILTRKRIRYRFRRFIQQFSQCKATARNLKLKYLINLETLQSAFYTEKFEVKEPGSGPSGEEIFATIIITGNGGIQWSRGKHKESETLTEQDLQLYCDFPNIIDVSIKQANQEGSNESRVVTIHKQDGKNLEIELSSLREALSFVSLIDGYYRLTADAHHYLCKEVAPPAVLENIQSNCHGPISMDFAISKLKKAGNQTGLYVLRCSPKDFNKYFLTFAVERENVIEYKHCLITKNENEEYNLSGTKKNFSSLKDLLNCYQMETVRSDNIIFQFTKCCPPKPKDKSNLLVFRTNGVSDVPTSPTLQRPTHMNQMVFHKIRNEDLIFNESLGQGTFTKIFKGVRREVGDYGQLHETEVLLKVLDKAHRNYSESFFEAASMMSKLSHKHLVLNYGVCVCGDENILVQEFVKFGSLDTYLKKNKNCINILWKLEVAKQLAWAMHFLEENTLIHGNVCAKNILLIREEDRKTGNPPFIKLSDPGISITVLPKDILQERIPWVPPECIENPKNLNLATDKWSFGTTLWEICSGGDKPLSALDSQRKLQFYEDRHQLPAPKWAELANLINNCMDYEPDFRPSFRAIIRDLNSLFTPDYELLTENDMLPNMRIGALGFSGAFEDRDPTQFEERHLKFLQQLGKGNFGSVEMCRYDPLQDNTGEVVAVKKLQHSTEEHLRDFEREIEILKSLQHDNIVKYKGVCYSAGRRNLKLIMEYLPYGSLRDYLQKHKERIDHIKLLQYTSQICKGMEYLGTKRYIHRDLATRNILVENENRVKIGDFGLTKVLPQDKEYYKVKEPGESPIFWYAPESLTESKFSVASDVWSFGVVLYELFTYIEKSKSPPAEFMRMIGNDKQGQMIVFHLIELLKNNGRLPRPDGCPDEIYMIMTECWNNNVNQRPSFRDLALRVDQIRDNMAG

AncSZ = assay: as above
Fes = Fes (UniProt P07332); assay: as above
Chain of Fes (P07332 whole entry, looked up): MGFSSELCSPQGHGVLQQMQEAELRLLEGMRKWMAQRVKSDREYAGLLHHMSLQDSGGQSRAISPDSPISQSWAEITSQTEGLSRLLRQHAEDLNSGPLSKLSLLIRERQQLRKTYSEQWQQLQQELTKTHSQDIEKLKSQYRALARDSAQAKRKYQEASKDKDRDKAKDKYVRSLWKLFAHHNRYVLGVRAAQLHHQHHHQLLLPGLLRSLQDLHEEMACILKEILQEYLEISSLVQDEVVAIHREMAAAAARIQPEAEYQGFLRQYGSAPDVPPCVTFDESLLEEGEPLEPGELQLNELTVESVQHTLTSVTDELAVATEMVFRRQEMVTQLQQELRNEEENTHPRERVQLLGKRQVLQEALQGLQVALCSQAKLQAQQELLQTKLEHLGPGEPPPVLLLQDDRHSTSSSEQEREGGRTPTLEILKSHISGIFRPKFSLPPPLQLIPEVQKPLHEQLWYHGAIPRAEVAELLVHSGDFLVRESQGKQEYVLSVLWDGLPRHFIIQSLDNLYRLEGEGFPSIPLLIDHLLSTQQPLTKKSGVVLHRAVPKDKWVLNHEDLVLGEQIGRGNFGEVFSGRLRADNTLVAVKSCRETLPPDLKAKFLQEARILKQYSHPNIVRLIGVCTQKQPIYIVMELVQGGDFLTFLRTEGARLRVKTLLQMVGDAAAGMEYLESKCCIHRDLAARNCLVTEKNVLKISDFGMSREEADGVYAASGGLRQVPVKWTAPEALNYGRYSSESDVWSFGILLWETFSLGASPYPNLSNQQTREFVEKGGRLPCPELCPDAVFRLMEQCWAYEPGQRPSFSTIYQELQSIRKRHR

MERTK = MERTK (UniProt Q12866); assay: as above
Chain of MERTK (Q12866 whole entry, looked up): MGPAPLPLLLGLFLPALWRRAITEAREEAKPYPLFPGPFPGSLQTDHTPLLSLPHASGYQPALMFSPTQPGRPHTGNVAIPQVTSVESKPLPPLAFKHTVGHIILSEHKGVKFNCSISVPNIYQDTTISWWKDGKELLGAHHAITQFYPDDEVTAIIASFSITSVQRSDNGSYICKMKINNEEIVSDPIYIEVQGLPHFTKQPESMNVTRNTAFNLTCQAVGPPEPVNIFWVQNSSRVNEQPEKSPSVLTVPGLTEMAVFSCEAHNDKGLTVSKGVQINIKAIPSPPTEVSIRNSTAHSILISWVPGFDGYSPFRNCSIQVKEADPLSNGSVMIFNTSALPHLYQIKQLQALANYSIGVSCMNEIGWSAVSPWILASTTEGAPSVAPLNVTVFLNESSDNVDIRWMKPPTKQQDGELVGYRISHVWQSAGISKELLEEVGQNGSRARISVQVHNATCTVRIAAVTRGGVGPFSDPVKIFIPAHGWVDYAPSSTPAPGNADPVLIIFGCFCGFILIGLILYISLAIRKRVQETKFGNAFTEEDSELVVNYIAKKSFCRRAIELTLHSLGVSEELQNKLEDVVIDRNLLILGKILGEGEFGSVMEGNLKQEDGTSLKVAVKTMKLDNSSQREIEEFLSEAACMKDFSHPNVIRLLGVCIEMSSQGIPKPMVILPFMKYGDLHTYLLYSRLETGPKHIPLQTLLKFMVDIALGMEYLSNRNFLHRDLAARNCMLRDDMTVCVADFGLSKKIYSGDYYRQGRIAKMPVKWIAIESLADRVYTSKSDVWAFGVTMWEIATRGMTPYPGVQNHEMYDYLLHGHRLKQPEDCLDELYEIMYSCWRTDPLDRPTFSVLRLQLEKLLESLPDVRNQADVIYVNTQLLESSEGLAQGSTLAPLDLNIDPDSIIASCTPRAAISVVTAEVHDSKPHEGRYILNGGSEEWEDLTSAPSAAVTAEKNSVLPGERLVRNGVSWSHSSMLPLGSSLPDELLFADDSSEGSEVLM

c-Abl (mouse) = assay: as above
Fyn = Fyn (UniProt P06241); assay: as above
Chain of Fyn (P06241 whole entry, looked up): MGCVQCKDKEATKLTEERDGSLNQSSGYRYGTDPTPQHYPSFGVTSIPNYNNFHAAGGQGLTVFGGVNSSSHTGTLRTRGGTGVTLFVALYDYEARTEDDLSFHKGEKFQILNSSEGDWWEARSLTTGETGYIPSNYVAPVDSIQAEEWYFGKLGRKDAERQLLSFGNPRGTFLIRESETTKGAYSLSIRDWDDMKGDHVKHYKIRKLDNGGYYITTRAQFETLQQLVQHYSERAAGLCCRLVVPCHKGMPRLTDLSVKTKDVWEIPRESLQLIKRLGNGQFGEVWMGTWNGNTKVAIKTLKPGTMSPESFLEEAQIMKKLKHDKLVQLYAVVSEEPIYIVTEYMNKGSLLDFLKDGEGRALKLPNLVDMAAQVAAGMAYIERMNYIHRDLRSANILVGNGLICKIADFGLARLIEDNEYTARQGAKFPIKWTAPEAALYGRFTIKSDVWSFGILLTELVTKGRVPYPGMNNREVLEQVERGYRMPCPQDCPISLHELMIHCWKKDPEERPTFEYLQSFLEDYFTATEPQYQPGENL

FGFR1 = FGFR1 (UniProt P11362); assay: as above
c-Src = assay: as above
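Throughout, for SH2 binding enrichment of the phosphorylated peptide, bacterial display: peptide library displayed on the E. coli surface as eCPX fusions, selected cells deep-sequenced, score is each peptide's frequency after selection divided by its frequency in the input.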
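Throughout, for phosphorylation enrichment, bacterial display: 11-residue human phosphosite peptides and single-mutation variants displayed on the E. coli surface, counted by deep sequencing, each peptide's frequency after selection divided by its frequency in the unselected input library; frequency after pTyr selection over input frequency; kinase dosed for 20-30% of maximal phosphorylation in three min.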

Row | Sequence | SH2 binding enrichment (c-Src SH2) | SH2 binding enrichment (Grb2 SH2) | SH2 binding enrichment (SHP2-C SH2) | phosphorylation enrichment (EPHB2) | phosphorylation enrichment (EPHB1) | phosphorylation enrichment (FGFR3) | phosphorylation enrichment (Hck) | phosphorylation enrichment (Fer (mouse)) | phosphorylation enrichment (Jak2) | phosphorylation enrichment (AncSZ) | phosphorylation enrichment (Fes) | phosphorylation enrichment (MERTK) | phosphorylation enrichment (c-Abl (mouse)) | phosphorylation enrichment (Fyn) | phosphorylation enrichment (FGFR1) | phosphorylation enrichment (c-Src)
1 | SLDLSYYTTSS [EMD_Y181_P183T] | 1.58 | 0.955 | 0.851 | 0.601 | 0.596 | 0.989 | 0.576 | 0.462 | 1.45 | 0.921 | 1.12 | 0.614 | 0.976 | 0.53 | 0.872 | 0.755
2 | WNNLDYMDSRR [GAA_Y407_D404N] | 0.527 | 0.861 | 1.43 | 0.821 | 0.914 | 0.636 | 0.572 | 0.498 | 0.749 | 0.964 | 0.907 | 0.392 | 0.581 | 0.464 | 0.538 | 0.412
3 | DVCKNYAEAKD [ALB_Y343] | 1.02 | 0.739 | 0.618 | 0.561 | 0.541 | 0.702 | 0.571 | 0.495 | 1.14 | 1.07 | 1.19 | 0.448 | 0.804 | 0.509 | 0.569 | 0.55
4 | VAMELYVFRGV [GAN_Y471_G474R] | 0.548 | 0.836 | 0.567 | 0.841 | 0.707 | 0.807 | 0.651 | 0.501 | 1.09 | 1.16 | 1.29 | 0.684 | 0.935 | 0.503 | 0.553 | 0.615
5 | PLRAFYLIARV [HLCS_Y635_D634Y_YF] | 0.6 | 0.996 | 0.738 | 1.46 | 1.02 | 1.84 | 0.866 | 1.26 | 5.18 | 3.67 | 4.68 | 1.33 | 3.67 | 0.92 | 1.07 | 2.27
6 | RLLRGYRQDAF [HLA-A_Y137_F133L_YF] | 0.465 | 0.762 | 0.965 | 0.334 | 0.809 | 0.676 | 0.604 | 0.659 | 0.854 | 1.22 | 0.981 | 0.647 | 0.807 | 0.678 | 0.547 | 0.819
7 | LDYNEYFRNLN [HPRT1_Y198_D201N] | 0.507 | 0.81 | 0.967 | 0.751 | 0.559 | 0.844 | 0.69 | 0.48 | 1.79 | 2.08 | 1.14 | 0.382 | 0.849 | 0.49 | 0.596 | 0.657
8 | LFHENYNAGTY [CFI_Y421_I416L] | 0.704 | 0.9 | 0.818 | 0.626 | 0.521 | 0.633 | 0.527 | 0.822 | 0.976 | 1.06 | 1.1 | 0.537 | 1.22 | 0.605 | 0.78 | 1.3
9 | RLSELYLRRNR [CFAP410_Y68] | 0.344 | 0.736 | 0.585 | 0.807 | 0.94 | 0.875 | 0.827 | 0.57 | 0.934 | 1.3 | 1.14 | 1.04 | 1.1 | 0.878 | 0.703 | 0.931
10 | ALVLQYLRVPL [F9_Y371] | 1.66 | 1.8 | 1.74 | 0.5 | 0.61 | 0.662 | 0.536 | 0.55 | 1.6 | 1.03 | 1.02 | 0.378 | 0.62 | 0.455 | 0.582 | 0.39
11 | GDRPVYSEDEQ [CHST6_Y362_Y358D] | 0.82 | 0.992 | 0.639 | 0.702 | 0.812 | 0.872 | 0.662 | 0.653 | 1.27 | 1.54 | 1.57 | 0.565 | 1.06 | 0.698 | 0.667 | 0.673
12 | RFLERYIYNRE [HLA-DPB1_Y57] | 1.28 | 1.3 | 1.45 | 0.683 | 0.852 | 0.784 | 1.73 | 0.546 | 0.451 | 0.77 | 0.949 | 0.533 | 0.533 | 0.842 | 0.495 | 0.849
13 | TKFRNYLIPNG [CYP2C8_Y379_K383N] | 0.462 | 0.946 | 0.724 | 0.736 | 0.527 | 0.502 | 0.432 | 0.394 | 0.536 | 0.68 | 0.679 | 0.495 | 0.631 | 0.553 | 0.458 | 0.484
14 | FPKVRYHWLVL [APTX_Y214_A212V_YF] | 0.892 | 1.31 | 0.999 | 0.672 | 0.81 | 0.631 | 0.425 | 0.529 | 1.18 | 0.994 | 1.21 | 0.461 | 0.978 | 0.42 | 0.428 | 0.513
15 | QNWELYSEGLG [CNKSR1_Y665_R662W] | 0.628 | 0.958 | 0.771 | 5.04 | 5.52 | 0.746 | 4.32 | 0.869 | 1.13 | 1.37 | 1.07 | 2.26 | 0.751 | 3.04 | 0.744 | 2.08
16 | AFGEVYEGQES [ALK_Y1131_V1135E] | 0.557 | 0.842 | 0.677 | 0.622 | 0.526 | 0.645 | 0.629 | 0.478 | 1.14 | 1.32 | 1.05 | 0.438 | 0.842 | 0.598 | 0.485 | 0.75
17 | SIKGKYVTALY [KCNH2_Y611_D609G] | 0.472 | 0.826 | 0.776 | 0.374 | 0.366 | 0.357 | 0.465 | 0.329 | 0.431 | 0.498 | 0.552 | 0.358 | 0.517 | 0.432 | 0.367 | 0.318
18 | PVFQVYPLLNC [GATA1_Y78] | 0.49 | 0.742 | 0.783 | 0.64 | 0.775 | 1.43 | 0.654 | 0.758 | 1.72 | 1.7 | 1.87 | 0.927 | 1.13 | 0.652 | 1.27 | 0.697

The next lines start with results.

Row | SH2 binding enrichment (c-Src SH2) | SH2 binding enrichment (Grb2 SH2) | SH2 binding enrichment (SHP2-C SH2) | Sequence | phosphorylation enrichment (EPHB2) | phosphorylation enrichment (EPHB1) | phosphorylation enrichment (FGFR3) | phosphorylation enrichment (Hck) | phosphorylation enrichment (Fer (mouse)) | phosphorylation enrichment (Jak2) | phosphorylation enrichment (AncSZ) | phosphorylation enrichment (Fes) | phosphorylation enrichment (MERTK) | phosphorylation enrichment (c-Abl (mouse)) | phosphorylation enrichment (Fyn) | phosphorylation enrichment (FGFR1) | phosphorylation enrichment (c-Src)
19 | 0.577 | 0.954 | 0.742 | RIAFQYGDTDL [MYBPC3_Y340_V342D] | 0.825 | 0.743 | 0.737 | 0.432 | 0.689 | 0.784 | 1.1 | 1.24 | 0.544 | 0.735 | 0.81 | 0.703 | 0.381
20 | 0.482 | 0.766 | 0.729 | ADKSAYLMGPN [MYH7_Y386_L390P] | 0.391 | 0.386 | 0.545 | 0.508 | 0.371 | 0.7 | 0.636 | 0.637 | 0.408 | 0.441 | 0.544 | 0.473 | 0.631
21 | 0.631 | 0.93 | 0.793 | KDHPDYKYQLR [SOX10_Y171_P175L] | 0.395 | 0.417 | 0.491 | 0.431 | 0.418 | 0.656 | 0.665 | 0.704 | 0.38 | 0.696 | 0.403 | 0.432 | 0.411
22 | 0.536 | 0.905 | 0.556 | ELAINYQEQAS [SLC9A9_Y591] | 0.469 | 0.526 | 0.674 | 0.643 | 0.524 | 0.832 | 0.923 | 0.869 | 0.416 | 0.504 | 0.539 | 0.522 | 0.403
23 | 0.572 | 0.913 | 0.894 | RSGIFYKPESL [L2HGDH_Y103_H98R_YF] | 0.567 | 0.547 | 0.702 | 0.716 | 0.458 | 0.647 | 0.994 | 0.866 | 0.499 | 0.706 | 0.512 | 0.572 | 0.751
24 | 1.11 | 0.824 | 0.638 | LVQAEYWHDPI [PPT1_Y185] | 0.487 | 0.677 | 2.98 | 0.593 | 0.644 | 1.18 | 1.48 | 1.48 | 0.591 | 1.36 | 0.58 | 3.89 | 0.61
25 | 0.376 | 0.689 | 0.688 | SVESPYGSVTF [NDRG2_Y47_T45S] | 0.862 | 0.501 | 0.496 | 5.03 | 9.44 | 0.572 | 0.662 | 0.696 | 0.525 | 0.57 | 7.99 | 0.456 | 5.95
26 | 0.692 | 1.35 | 0.722 | GCKNRYDEDKP [THAP1_Y14_K16E] | 0.497 | 0.51 | 0.722 | 0.596 | 0.452 | 0.617 | 0.856 | 0.808 | 0.431 | 0.512 | 0.49 | 0.606 | 0.438
27 | 0.513 | 0.827 | 0.423 | MHDKEYYSVHN [MET_Y1234_Y1230H] | 0.497 | 0.53 | 2.08 | 0.459 | 0.411 | 0.807 | 0.78 | 0.748 | 0.496 | 0.479 | 0.488 | 3.36 | 0.61
28 | 0.601 | 0.615 | 0.721 | PMQMPYDSRWE [PDGFRA_Y582_L580M] | 0.801 | 0.835 | 1.1 | 0.794 | 0.671 | 2.03 | 1.52 | 1.47 | 0.728 | 1.96 | 0.374 | 0.865 | 1.49
29 | 1.16 | 1.73 | 1.71 | RGVAHYILQTF [SLC39A4_Y359_T357A] | 0.724 | 0.718 | 0.628 | 0.685 | 0.554 | 1.33 | 1.48 | 1.34 | 0.583 | 1.13 | 0.636 | 0.456 | 0.743
30 | 0.532 | 0.852 | 0.531 | YQKDVYDIPPS [NEDD9_Y177] | 3.2 | 0.788 | 0.499 | 3.38 | 0.611 | 0.614 | 0.954 | 0.735 | 7.34 | 0.734 | 3.66 | 0.528 | 3.26
31 | 0.52 | 0.806 | 0.572 | GLRCGYGVLGG [KRTAP20-2_Y15_Y13C] | 0.387 | 0.484 | 0.612 | 0.432 | 0.484 | 0.825 | 0.775 | 0.854 | 0.359 | 0.617 | 0.466 | 0.381 | 0.73
32 | 0.521 | 1.19 | 0.628 | EAEPFYRSLRD [NPHS1_Y1139_YF] | 0.545 | 0.461 | 0.707 | 0.644 | 0.451 | 0.893 | 0.792 | 1.18 | 0.539 | 0.743 | 0.433 | 0.536 | 0.53
33 | 1.29 | 1.64 | 1.79 | HQKKPYCHAHN [NRAP_Y53] | 0.8 | 1.08 | 2.09 | 1.05 | 1.85 | 3.5 | 1.82 | 1.62 | 0.623 | 2.3 | 0.828 | 0.983 | 0.591
